What was measured:
HeLa Kyoto [1] = assay: solubility change mitosis vs G1/S (difference of NP-40 vs SDS log2 ratios) (log2 ratio difference); higher = more soluble in mitosis
HeLa Kyoto [2] = assay: melting temperature (median over replicates), in situ; higher = more thermally stable
HeLa Kyoto [3] = assay: thermal stability score vs G1/S (z-score of summed log2 fold changes over temperatures); higher = more thermally stable than in G1/S
HeLa Kyoto [4] = assay: solubility in G1/S (NP-40 vs SDS abundance) (log2 ratio); higher = more soluble; settings: cell cycle stage: G1/S
[5] = cell cycle stage: early G1 (4.5 h after nocodazole release)
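For melting temperature (median over replicates), in situ in this document: HeLa Kyoto cells synchronized by double thymidine or nocodazole block, proteins quantified by TMT10plex mass spectrometry, three independent biological replicates.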
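For solubility change mitosis vs G1/S (difference of NP-40 vs SDS log2 ratios) in this document: synchronized HeLa Kyoto cells (double thymidine block for G1/S, nocodazole release for mitosis), protein amounts in NP-40 versus SDS lysates quantified by mass spectrometry, three biological replicates.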
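For solubility in G1/S (NP-40 vs SDS abundance) in this document: HeLa Kyoto cells arrested at G1/S by double thymidine block, proteins quantified by TMT10plex mass spectrometry in mild NP-40 versus SDS extracts, three biological replicates.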
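For thermal stability score vs G1/S (z-score of summed log2 fold changes over temperatures) in this document: synchronized HeLa Kyoto cells, proteins quantified by TMT10plex mass spectrometry, three biological replicates, mitosis taken 0.5 h after nocodazole release, G1/S directly after double thymidine block.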

Sequence	solubility change mitosis (log2) (HeLa Kyoto [1])	melting temperature (HeLa Kyoto [2]; cell cycle stage: G1/S) [°C]	melting temperature (HeLa Kyoto [2]; cell cycle stage: mitosis) [°C]	thermal stability score (HeLa Kyoto [3]; [5])	thermal stability score (HeLa Kyoto [3]; cell cycle stage: mitosis)	solubility in G1/S (log2) (HeLa Kyoto [4])
MSVACVLKRKAVLWQDSFSPHLKHHPQEPANPNMPVVLTSGTGSQAQPQPAANQALAAGTHSSPVPGSIGVAGRSQDDAMVDYFFQRQHGEQLGGGGSGGGGYNNSKHRWPTGDNIHAEHQVRSMDELNHDFQALALEGRAMGEQLLPGKKFWETDESSKDGPKGIFLGDQWRDSAWGTSDHSVSQPIMVQRRPGQSFHVNSEVNSVLSPRSESGGLGVSMVEYVLSSSPGDSCLRKGGFGPRDADSDENDKGEKKNKGTFDGDKLGDLKEEGDVMDKTNGLPVQNGIDADVKDFSRTPGNCQNSANEVDLLGPNQNGSEGLAQLTSTNGAKPVEDFSNMESQSVPLDPMEHVGMEPLQFDYSGTQVPVDSAAATVGLFDYNSQQQLFQRPNALAVQQLTAAQQQQYALAAAHQPHIGLAPAAFVPNPYIISAAPPGTDPYTAGLAAAATLGPAVVPHQYYGVTPWGVYPASLFQQQAAAAAAATNSANQQTTPQAQQGQQQVLRGGASQRPLTPNQNQQGQQTDPLVAAAAVNSALAFGQGLAAGMPGYPVLAPAAYYDQTGALVVNAGARNGLGAPVRLVAPAPVIISSSAAQAAVAAAAASANGAAGGLAGTTNGPFRPLGTQQPQPQPQQQPNNNLASSSFYGNNSLNSNSQSSSLFSQGSAQPANTSLGFGSSSSLGATLGSALGGFGTAVANSNTGSGSRRDSLTGSSDLYKRTSSSLTPIGHSFYNGLSFSSSPGPVGMPLPSQGPGHSQTPPPSLSSHGSSSSLNLGGLTNGSGRYISAAPGAEAKYRSASSASSLFSPSSTLFSSSRLRYGMSDVMPSGRSRLLEDFRNNRYPNLQLREIAGHIMEFSQDQHGSRFIQLKLERATPAERQLVFNEILQAAYQLMVDVFGNYVIQKFFEFGSLEQKLALAERIRGHVLSLALQMYGCRVIQKALEFIPSDQQNEMVRELDGHVLKCVKDQNGNHVVQKCIECVQPQSLQFIIDAFKGQVFALSTHPYGCRVIQRILEHCLPDQTLPILEELHQHTEQLVQDQYGNYVIQHVLEHGRPEDKSKIVAEIRGNVLVLSQHKFASNVVEKCVTHASRTERAVLIDEVCTMNDGPHSALYTMMKDQYANYVVQKMIDVAEPGQRKIVMHKIRPHIATLRKYTYGKHILAKLEKYYMKNGVDLGPICGPPNGII [PUM1]	-0.102	51.5	51	-1.3	-1.48	0.186
MSVEAYGPSSQTLTFLDTEEAELLGADTQGSEFEFTDFTLPSQTQTPPGGPGGPGGGGAGGPGGAGAGAAAGQLDAQVGPEGILQNGAVDDSVAKTSQLLAELNFEEDEEDTYYTKDLPIHACSYCGIHDPACVVYCNTSKKWFCNGRGNTSGSHIVNHLVRAKCKEVTLHKDGPLGETVLECYNCGCRNVFLLGFIPAKADSVVVLLCRQPCASQSSLKDINWDSSQWQPLIQDRCFLSWLVKIPSEQEQLRARQITAQQINKLEELWKENPSATLEDLEKPGVDEEPQHVLLRYEDAYQYQNIFGPLVKLEADYDKKLKESQTQDNITVRWDLGLNKKRIAYFTLPKTDSGNEDLVIIWLRDMRLMQGDEICLRYKGDLAPLWKGIGHVIKVPDNYGDEIAIELRSSVGAPVEVTHNFQVDFVWKSTSFDRMQSALKTFAVDETSVSGYIYHKLLGHEVEDVIIKCQLPKRFTAQGLPDLNHSQVYAVKTVLQRPLSLIQGPPGTGKTVTSATIVYHLARQGNGPVLVCAPSNIAVDQLTEKIHQTGLKVVRLCAKSREAIDSPVSFLALHNQIRNMDSMPELQKLQQLKDETGELSSADEKRYRALKRTAERELLMNADVICCTCVGAGDPRLAKMQFRSILIDESTQATEPECMVPVVLGAKQLILVGDHCQLGPVVMCKKAAKAGLSQSLFERLVVLGIRPIRLQVQYRMHPALSAFPSNIFYEGSLQNGVTAADRVKKGFDFQWPQPDKPMFFYVTQGQEEIASSGTSYLNRTEAANVEKITTKLLKAGAKPDQIGIITPYEGQRSYLVQYMQFSGSLHTKLYQEVEIASVDAFQGREKDFIILSCVRANEHQGIGFLNDPRRLNVALTRARYGVIIVGNPKALSKQPLWNHLLNYYKEQKVLVEGPLNNLRESLMQFSKPRKLVNTINPGARFMTTAMYDAREAIIPGSVYDRSSQGRPSSMYFQTHDQIGMISAGPSHVAAMNIPIPFNLVMPPMPPPGYFGQANGPAAGRGTPKGKTGRGGRQKNRFGLPGPSQTNLPNSQASQDVASQPFSQGALTQGYISMSQPSQMSQPGLSQPELSQDSYLGDEFKSQIDVALSQDSTYQGERAYQHGGVTGLSQY [UPF1]	-0.0177	54.3	52.3	-3.14	-8.04	0.0497
MSVRVARVAWVRGLGASYRRGASSFPVPPPGAQGVAELLRDATGAEEEAPWAATERRMPGQCSVLLFPGQGSQVVGMGRGLLNYPRVRELYAAARRVLGYDLLELSLHGPQETLDRTVHCQPAIFVASLAAVEKLHHLQPSVIENCVAAAGFSVGEFAALVFAGAMEFAEGLYAVKIRAEAMQEASEAVPSGMLSVLGQPQSKFNFACLEAREHCKSLGIENPVCEVSNYLFPDCRVISGHQEALRFLQKNSSKFHFRRTRMLPVSGAFHTRLMEPAVEPLTQALKAVDIKKPLVSVYSNVHAHRYRHPGHIHKLLAQQLVSPVKWEQTMHAIYERKKGRGFPQTFEVGPGRQLGAILKSCNMQAWKSYSAVDVLQTLEHVDLDPQEPPR [MCAT]	-0.00154	53.7	54.9	-1.29	-2.74	0.3
MSVRVARVAWVRGLGASYRRGASSFPVPPPGAQGVAELLRDATGAEEEAPWAATERRMPGQCSVLLFPGQGSQVVGMGRGLLNYPRVRELYAAARRVLGYDLLELSLHGPQETLDRTVHCQPAIFVASLAAVEKLHHLQPSVIENCVAAAGFSVGEFAALVFAGAMEFAEGLYAVKIRAEAMQEASEAVPSGMLSVLGQPQSKFNFACLEAREHCKSLGIENPVCEVSNYLFPDCRVISGHQEALRFLQKNSSKFHFRRTRMLPVSGAFHTRLMEPAVEPLTQALKAVDIKKPLVSVYSNVHAHRYRHPGHIHKLLAQQLVSPVKWEQTMHAIYERKKGRGFPQTFEVGPGRQLGAILKSCNMQAWKSYSAVDVLQTLEHVDLDPQEPPR [MT]	-0.162	59	56.6	-1.31	-2.45	-0.124
MSVTYDDSVGVEVSSDSFWEVGNYKRTVKRIDDGHRLCSDLMNCLHERARIEKAYAQQLTEWARRWRQLVEKGPQYGTVEKAWMAFMSEAERVSELHLEVKASLMNDDFEKIKNWQKEAFHKQMMGGFKETKEAEDGFRKAQKPWAKKLKEVEAAKKAHHAACKEEKLAISREANSKADPSLNPEQLKKLQDKIEKCKQDVLKTKEKYEKSLKELDQGTPQYMENMEQVFEQCQQFEEKRLRFFREVLLEVQKHLDLSNVAGYKAIYHDLEQSIRAADAVEDLRWFRANHGPGMAMNWPQFEEWSADLNRTLSRREKKKATDGVTLTGINQTGDQSLPSKPSSTLNVPSNPAQSAQSQSSYNPFEDEDDTGSTVSEKDDTKAKNVSSYEKTQSYPTDWSDDESNNPFSSTDANGDSNPFDDDATSGTEVRVRALYDYEGQEHDELSFKAGDELTKMEDEDEQGWCKGRLDNGQVGLYPANYVEAIQ [PACSIN2]	-0.0385	49.6	49.7	1.11	1.7	0.218
MSWESGAGPGLGSQGMDLVWSAWYGKCVKGKGSLPLSAHGIVVAWLSRAEWDQVTVYLFCDDHKLQRYALNRITVWRSRSGNELPLAVASTADLIRCKLLDVTGGLGTDELRLLYGMALVRFVNLISERKTKFAKVPLKCLAQEVNIPDWIVDLRHELTHKKMPHINDCRRGCYFVLDWLQKTYWCRQLENSLRETWELEEFREGIEEEDQEEDKNIVVDDITEQKPEPQDDGKSTESDVKADGDSKGSEEVDSHCKKALSHKELYERARELLVSYEEEQFTVLEKFRYLPKAIKAWNNPSPRVECVLAELKGVTCENREAVLDAFLDDGFLVPTFEQLAALQIEYEDGQTEVQRGEGTDPKSHKNVDLNDVLVPKPFSQFWQPLLRGLHSQNFTQALLERMLSELPALGISGIRPTYILRWTVELIVANTKTGRNARRFSAGQWEARRGWRLFNCSASLDWPRMVESCLGSPCWASPQLLRIIFKAMGQGLPDEEQEKLLRICSIYTQSGENSLVQEGSEASPIGKSPYTLDSLYWSVKPASSSFGSEAKAQQQEEQGSVNDVKEEEKEEKEVLPDQVEEEEENDDQEEEEEDEDDEDDEEEDRMEVGPFSTGQESPTAENARLLAQKRGALQGSAWQVSSEDVRWDTFPLGRMPGQTEDPAELMLENYDTMYLLDQPVLEQRLEPSTCKTDTLGLSCGVGSGNCSNSSSSNFEGLLWSQGQLHGLKTGLQLF [LAS1L]	0.658	49.7	51	1.98	2.81	-1.4
MSWMFKRDPVWKYLQTVQYGVHGNFPRLSYPTFFPRFEFQDVIPPDDFLTSDEEVDSVLFGSLRGHVVGLRYYTGVVNNNEMVALQRDPNNPYDKNAIKVNNVNGNQVGHLKKELAGALAYIMDNKLAQIEGVVPFGANNAFTMPLHMTFWGKEENRKAVSDQLKKHGFKLGPAPKTLGFNLESGWGSGRAGPSYSMPVHAAVQMTTEQLKTEFDKLFEDLKEDDKTHEMEPAEAIETPLLPHQKQALAWMVSRENSKELPPFWEQRNDLYYNTITNFSEKDRPENVHGGILADDMGLGKTLTAIAVILTNFHDGRPLPIERVKKNLLKKEYNVNDDSMKLGGNNTSEKADGLSKDASRCSEQPSISDIKEKSKFRMSELSSSRPKRRKTAVQYIESSDSEEIETSELPQKMKGKLKNVQSETKGRAKAGSSKVIEDVAFACALTSSVPTTKKKMLKKGACAVEGSKKTDVEERPRTTLIICPLSVLSNWIDQFGQHIKSDVHLNFYVYYGPDRIREPALLSKQDIVLTTYNILTHDYGTKGDSPLHSIRWLRVILDEGHAIRNPNAQQTKAVLDLESERRWVLTGTPIQNSLKDLWSLLSFLKLKPFIDREWWHRTIQRPVTMGDEGGLRRLQSLIKNITLRRTKTSKIKGKPVLELPERKVFIQHITLSDEERKIYQSVKNEGRATIGRYFNEGTVLAHYADVLGLLLRLRQICCHTYLLTNAVSSNGPSGNDTPEELRKKLIRKMKLILSSGSDEECAICLDSLTVPVITHCAHVFCKPCICQVIQNEQPHAKCPLCRNDIHEDNLLECPPEELARDSEKKSDMEWTSSSKINALMHALTDLRKKNPNIKSLVVSQFTTFLSLIEIPLKASGFVFTRLDGSMAQKKRVESIQCFQNTEAGSPTIMLLSLKAGGVGLNLSAASRVFLMDPAWNPAAEDQCFDRCHRLGQKQEVIITKFIVKDSVEENMLKIQNKKRELAAGAFGTKKPNADEMKQAKINEIRTLIDL [HLTF]	-0.0719	48.9	50.2	2.36	4.68	-0.124
MSWSPSLTTQTCGAWEMKERLGTGGFGNVIRWHNQETGEQIAIKQCRQELSPRNRERWCLEIQIMRRLTHPNVVAARDVPEGMQNLAPNDLPLLAMEYCQGGDLRKYLNQFENCCGLREGAILTLLSDIASALRYLHENRIIHRDLKPENIVLQQGEQRLIHKIIDLGYAKELDQGSLCTSFVGTLQYLAPELLEQQKYTVTVDYWSFGTLAFECITGFRPFLPNWQPVQWHSKVRQKSEVDIVVSEDLNGTVKFSSSLPYPNNLNSVLAERLEKWLQLMLMWHPRQRGTDPTYGPNGCFKALDDILNLKLVHILNMVTGTIHTYPVTEDESLQSLKARIQQDTGIPEEDQELLQEAGLALIPDKPATQCISDGKLNEGHTLDMDLVFLFDNSKITYETQISPRPQPESVSCILQEPKRNLAFFQLRKVWGQVWHSIQTLKEDCNRLQQGQRAAMMNLLRNNSCLSKMKNSMASMSQQLKAKLDFFKTSIQIDLEKYSEQTEFGITSDKLLLAWREMEQAVELCGRENEVKLLVERMMALQTDIVDLQRSPMGRKQGGTLDDLEEQARELYRRLREKPRDQRTEGDSQEMVRLLLQAIQSFEKKVRVIYTQLSKTVVCKQKALELLPKVEEVVSLMNEDEKTVVRLQEKRQKELWNLLKIACSKVRGPVSGSPDSMNASRLSQPGQLMSQPSTASNSLPEPAKKSEELVAEAHNLCTLLENAIQDTVREQDQSFTALDWSWLQTEEEEHSCLEQAS [IKBKB]	-0.171	48.3	49.2	1.13	2.17	0.0875

Source: the supplement of paper PMC5998384
